# Source: patent US9850293B2, “Targeting trastuzumab-resistant HER2+ breast cancer with a HER3-targeting nanoparticle” (priority 2014, dated 2017)
# Tests used:
# JIMT-1 tumors = assay: Trastuzumab-resistant tumor growth in vivo; design: species or system mouse; conditions: 0.004 mg Dox/kg/injection, twice-weekly IV
# Description: (§1) Tumor volumes were measured by calipers. Day 0 corresponds to first day of treatment. N=10 tumors per treatment.
# as §1
# (§2) The efficacy of HerDox was also examined on a cell line with pre-existing resistance.
# (§3) The contribution of HER3 to targeted toxicity was evaluated by assessing whether pre-adsorbing HerDox with a peptide comprising the ligand-binding domain of HER3 blocked cytotoxicity.
# [1] = test system: MDA-MB-435 (non-GFP, HER2+); assay: Targeting in a mixed cell culture; assay type: cell-based, human; conditions: 0.5 μM Dox, day 2
# Description: (§4) FIG. 9 (A) illustrates targeting in a mixed cell culture.
# (§5) FIG. 9 (B) further illustrates targeting in a mixed cell culture. Cell survival was determined by calculating the relative doubling time (DT) of experimental (exp) cells normalized by control (con) cells based on the crystal violet stains (total cells) and GFP fluorescence (MDA-MB-231 cells). The DT of MDA-MB-435 was determined by subtracting the DT of MDA-MB-231 from the total cell DT. Relative survival is shown for Day 2 of treatment.
# (§6) By three days, HerDox reduced HER2+ cell numbers by over 75% whereas HER2− cell survival was unaffected (FIG. 7). […] These findings emphasize the importance of targeting by showing that the untargeted drug affects nontarget (i.e. HER2−) cells. […] To test receptor targeting, the inventors used free heregulin ligand (Her or eHRG) as a competitive inhibitor. […] As a final in vitro challenge, the inventors tested whether HerDox induces toxicity specifically to HER2+ cells in a mixed culture of HER2+ and HER2− breast cancer cells. To do this, the inventors produced a HER2− cell line tagged with green fluorescent protein (GFP) for cell identification in the mixed culture (FIG. 9-A). […] Altogether, these findings indicate that HerDox has the capacity to preferentially target toxicity to HER2+ cells. […] In serum-containing media, no such loss from HerDox is detectable. […]
# [2] = test system: GFP(+) MDA-MB-231 (HER2−); assay: Targeting in a mixed cell culture; assay type: cell-based, human; conditions: 0.5 μM Dox, day 2
# Description: as §4, §5, §6
# [3] = HerDox stability under storage conditions; assay type: physicochemical; conditions: up to 12 days
# Description: FIG. 6 (A) illustrates conjugate stability under different storage conditions, or in serum. HerDox was incubated up to 12 days at 4° C., Room Temperature, or 37° C. Samples were filtered through ultrafiltration spin columns every other day.
# The inventors tested the stability of HerDox over 12 days under different storage temperatures: 40° C., room temperature, or 37° C. […] The inventors also examined HerDox stability in serum-containing media at 37° C. […] Dox retention in the conjugate was also assessed by eluting the conjugate from the beads at each time point.
# [4] = HerDox stability in cell culture media (agarose gel); assay type: in vitro ADME; conditions: serum-containing media, 37° C.
# Description: FIG. 9 (C) illustrates that there is stability in cell culture. Aliquots of culture media containing HerDox (after incubation for the indicated times at 37° C.) were electrophoresed on a 2% agarose gel. HerDox incubated at 37° C. in HEPES-buffered saline, lacking serum, was processed in parallel. Dox fluorescence was visualized by UV excitation. Free Dox (Dox alone) is not retained in the gel whereas Dox incorporated in HerDox is. To align fluorescent bands with HerPBK10 and assess loading per lane, the gel was stained with Coomassie blue, which also identified serum protein from culture media samples.
# By three days, HerDox reduced HER2+ cell numbers by over 75% whereas HER2− cell survival was unaffected (FIG. 7). […] These findings emphasize the importance of targeting by showing that the untargeted drug affects nontarget (i.e. HER2−) cells. […] To test receptor targeting, the inventors used free heregulin ligand (Her or eHRG) as a competitive inhibitor. […] As a final in vitro challenge, the inventors tested whether HerDox induces toxicity specifically to HER2+ cells in a mixed culture of HER2+ and HER2− breast cancer cells. To do this, the inventors produced a HER2− cell line tagged with green fluorescent protein (GFP) for cell identification in the mixed culture (FIG. 9-A). […]
# [5] = test system: SKBR3 trastuzumab-resistant cells; assay: Tumor cell killing in culture; assay type: cell-based, human; conditions: 48-72 h after treatment
# Description: FIG. 21 depicts graph that show the results of the administration of HerDox on various cells. […] N=3. *=p<0.05 compared to parental. […] N=3.
# N=3. *, p<0.05 compared to parental. […] N=3. […] Parental and resistant cell lines were treated with HerDox−/+HER3 blocking peptide (ErbB3 human; Prospec), and tested for cell survival 48 hours later. […] Treatments were compared to mock (saline)-treatment. […] N=3. *, p<0.05 compared to parental. […] N=3.
# Each therapeutic was administered at concentration ranges previously established for eliciting therapeutic efficacy.
# Each therapeutic was administered at concentration ranges previously established or known in the art for eliciting therapeutic efficacy.
# JIMT-1 cell line = assay: Tumor cell killing in culture, pre-existing resistance; assay type: cell-based, human; conditions: JIMT-1, dose-dependent, maximum
# Description: N=3. *, p<0.05 compared to parental. […] N=3. […] Treatments were compared to mock (saline)-treatment. […] N=3. *, p<0.05 compared to parental. […] N=3.
# as §2, §3
# SKOV3 = assay: Cytotoxicity on cell lines (HerDox dose curves); assay type: cell-based, human; conditions: concentration yielding 50% reduction in cell survival, mean ± SD
# MDA-MB-435 cells = assay: Trastuzumab pre-treatment before HerDox, cell survival; assay type: cell-based, human; conditions: MDA-MB-435, 24 h pre-treatment
# Text: N=3. […] N=3. […] N=3. […] N=3. […] N=3. […] N=3.
# [6] = test system: HER2+ tumors (MDA-MB-435); assay: In vivo tumor toxicity (tumor growth); design: species or system mouse; conditions: 0.004 mg/kg with respect to Dox, daily tail vein injections for 7 days
molecule,measurement,setting,value
"HerDox: non-covalent complex of HerPBK10, double-stranded oligonucleotide and intercalated Dox (Unit A+Unit B+Unit C) (conjugate, left off: small tags and cut ends) SHLVKCAEKEKTFCVNGGECFMVKDLSNPSRYLCKCQPGFTGARCTENVPMKVQNQEKAEELYQKMRRAAMYEEGPPPSYESVVSAAPVAAALGSPFDAPLDPPFVPPRYLRPTGGRNSIRYSELAPLFDTTRVYLVDNKSTDVASLNYQNDHSNFLTTVIQNNDYSPGEASTQTINLDDRSHWGGDLKTILHTNMPNVNEFMFTNKFKARVMVSRLPTKDNQVELKYEWVEFTLPEGNYSETMTIDLMNNAIVEHYLKVGRQNGVLESDIGVKFDTRNFRLGFDPVTGLVMPGVYTNEAFHPDIILLPGCGVDFTHSRLSNLLGIRKRQPFQEGFRITYDDLEGGNIPALLDVDAYQASLKDDTEQGGGGAGGSNSSGSGAEENSNAAAAAMQPVEDMNDHAIRGDTFATRAEEKRAEAEAAAEAAAPAAQPEVEKPQKKPVIKPLTEDSKKRSYNLISNDSTFTQYRSWYLAYNYGDPQTGIRSWTLLCTPDVTCGSEQVYWSLPDMMQDPVTFRSTRQISNFPVVGAELLPVHSKSFYNDQAVYSQLIRQFTSLTHVFNRFPENQILARPPAPTITTVSENVPALTDHGTLPLRNSIGGVQRVTITDARRRTCPYVYKALGIVSPRVLSSRTFKKKKKKKKKK",effect on JIMT-1 tumor growth,JIMT-1 tumors,ablated tumor growth
same,non-GFP (HER2+) cell proliferation in mixed culture,[1],nearly completely reduced
same,GFP (HER2−) cell growth in mixed culture,[2],not altered
same,product remaining intact,[3]; 4° C.,100%
same,effect of storage on drug incorporation,[3]; room temperature and 37° C.,appeared to enhance the incorporation of the drug
same,loss of Dox fluorescence from conjugate in culture media,[4],no such loss
same,cell death,[5],> 80%
same,cells killed,JIMT-1 cell line,up to 90%
same,EC50,SKOV3,0.18 ± 0.03 µM
same,enhancement of HerDox toxicity by trastuzumab pre-treatment,MDA-MB-435 cells,modest enhancement in toxicity
same,effect on tumor growth,[6],essentially prevented tumor growth
